Several values for one entry are separate records, joined by “and”; a condition that tells them apart may be missing. Equal values may be shown once.
Tests used:
[1] = molecular target: human ABCA1 transporter on stably transfected HeLa cells (human) (UniProt O95477); test: cell-based or functional assay
[2] = molecular target: human ABCA1 transporter on stably transfected HeLa cells (human) (UniProt O95477); test: direct binding of 125I-L-37pA at 1 µg/ml to ABCA1-transfected HeLa cells, 1 hour, 4 C; design: unit not given here
[3] = molecular target: human ABCA1 transporter on stably transfected HeLa cells (human) (UniProt O95477); test: two-step sequential competitive binding on ABCA1-transfected HeLa cells, competitor at 8 µM, tracer 125I-L-37pA

Chain of UniProt O95477 (O95477 whole entry): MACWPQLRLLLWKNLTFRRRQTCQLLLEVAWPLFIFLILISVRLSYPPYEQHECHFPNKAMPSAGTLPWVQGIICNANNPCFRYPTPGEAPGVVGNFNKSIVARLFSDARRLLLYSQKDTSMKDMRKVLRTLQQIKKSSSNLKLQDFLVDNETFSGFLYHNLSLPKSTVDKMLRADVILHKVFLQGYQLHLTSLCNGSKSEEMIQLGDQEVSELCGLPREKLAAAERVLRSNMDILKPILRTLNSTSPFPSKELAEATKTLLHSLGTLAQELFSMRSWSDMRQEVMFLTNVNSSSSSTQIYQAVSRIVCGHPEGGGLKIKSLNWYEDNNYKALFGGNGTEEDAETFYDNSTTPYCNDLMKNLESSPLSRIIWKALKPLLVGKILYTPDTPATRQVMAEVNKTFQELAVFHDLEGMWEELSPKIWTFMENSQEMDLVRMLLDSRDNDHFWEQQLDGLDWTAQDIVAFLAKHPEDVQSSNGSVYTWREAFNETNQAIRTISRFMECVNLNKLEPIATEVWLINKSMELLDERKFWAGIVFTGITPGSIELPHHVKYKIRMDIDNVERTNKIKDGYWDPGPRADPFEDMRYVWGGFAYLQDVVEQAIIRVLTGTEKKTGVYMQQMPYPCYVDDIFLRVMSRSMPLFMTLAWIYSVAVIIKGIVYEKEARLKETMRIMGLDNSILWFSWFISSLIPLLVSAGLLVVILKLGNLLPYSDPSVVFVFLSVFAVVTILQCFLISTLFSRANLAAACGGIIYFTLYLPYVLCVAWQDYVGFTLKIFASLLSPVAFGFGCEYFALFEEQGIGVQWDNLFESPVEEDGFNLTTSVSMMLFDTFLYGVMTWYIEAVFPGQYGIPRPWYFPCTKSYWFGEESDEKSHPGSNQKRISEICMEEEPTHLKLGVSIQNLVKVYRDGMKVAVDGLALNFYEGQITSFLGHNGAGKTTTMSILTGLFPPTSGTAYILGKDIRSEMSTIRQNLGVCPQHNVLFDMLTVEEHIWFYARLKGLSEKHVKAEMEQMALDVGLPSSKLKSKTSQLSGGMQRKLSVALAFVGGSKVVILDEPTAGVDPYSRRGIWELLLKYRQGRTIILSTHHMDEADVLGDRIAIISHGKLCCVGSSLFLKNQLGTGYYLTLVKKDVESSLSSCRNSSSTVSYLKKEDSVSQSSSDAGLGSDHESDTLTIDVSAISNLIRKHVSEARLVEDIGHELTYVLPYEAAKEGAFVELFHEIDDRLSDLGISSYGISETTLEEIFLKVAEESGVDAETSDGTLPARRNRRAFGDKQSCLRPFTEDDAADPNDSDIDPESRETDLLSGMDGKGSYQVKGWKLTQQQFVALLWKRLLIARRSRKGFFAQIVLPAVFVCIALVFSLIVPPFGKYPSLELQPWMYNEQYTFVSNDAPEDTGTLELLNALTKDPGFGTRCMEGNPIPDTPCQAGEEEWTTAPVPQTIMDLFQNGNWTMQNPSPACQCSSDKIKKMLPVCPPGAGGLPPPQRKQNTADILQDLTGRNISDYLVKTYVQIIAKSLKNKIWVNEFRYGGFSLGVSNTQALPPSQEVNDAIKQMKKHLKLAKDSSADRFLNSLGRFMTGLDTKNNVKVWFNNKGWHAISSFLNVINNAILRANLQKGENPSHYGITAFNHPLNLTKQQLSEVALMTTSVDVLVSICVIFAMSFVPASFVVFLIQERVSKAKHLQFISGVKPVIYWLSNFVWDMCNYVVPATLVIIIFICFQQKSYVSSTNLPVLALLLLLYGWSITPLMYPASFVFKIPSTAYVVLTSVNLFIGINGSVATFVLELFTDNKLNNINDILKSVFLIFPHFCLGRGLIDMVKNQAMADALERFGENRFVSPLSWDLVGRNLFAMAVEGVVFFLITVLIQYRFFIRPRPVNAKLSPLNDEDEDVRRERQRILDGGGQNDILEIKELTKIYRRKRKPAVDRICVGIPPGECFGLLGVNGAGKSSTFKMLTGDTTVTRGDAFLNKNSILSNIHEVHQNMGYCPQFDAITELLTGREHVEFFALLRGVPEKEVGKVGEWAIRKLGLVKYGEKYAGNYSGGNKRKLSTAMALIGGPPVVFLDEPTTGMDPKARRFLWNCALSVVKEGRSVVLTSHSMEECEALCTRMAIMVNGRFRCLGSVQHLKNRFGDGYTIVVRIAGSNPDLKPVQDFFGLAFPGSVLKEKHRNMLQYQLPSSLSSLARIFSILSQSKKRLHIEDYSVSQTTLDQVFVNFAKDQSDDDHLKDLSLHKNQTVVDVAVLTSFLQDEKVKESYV

- cholesterol and phospholipid efflux, ABCA1 cells against control cells, 18 hours [1]: 2 fold and 4 fold
- concentration at which lipid efflux began to show saturation [1]: 2 µM
- cell-bound radiolabeled peptide in the absence of a competitor [2]: 35
- percent of labeled L-37pA binding blocked [3]: 40%
Binder: DWLKAFYDKVAEKLKEAFPDWLKAFYDKVAEKLKEAF [L-37pA peptide]

Source: patent US20110033518A1
